Test results published in the nanobody polyreactivity screen of Harvey et al. (2022).

assay: yeast display, Sf9 membrane polyspecificity reagent, FACS + sequencing; frameworks hold sequencing errors
Summary of the method: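 After 36–48 hours of galactose induction, yeast (Saccharomyces cerevisiae BJ5465) displaying a synthetic nanobody library were stained at 4 °C for 1 hour with 10% biotinylated, detergent-solubilized Sf9 membrane reagent. Streptavidin microbeads enriched the stained cells before FACS sorting into low and high (top ~1%) gates on anti-HA and streptavidin fluorescence. Each clone's polyreactivity label reflects its gate of origin.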

Row | Sequence | polyreactivity (PSR sort gate)
1 | QDQLVESGGGLVQAGGSLRLTCAASGFNYRRNAMGWYRQAPGKERELVAAITASGGRTYYADSVKGRFTISRDNAKNTVYLQMNSLKPEDTAVDYCARDTAGFTRFSSKYDYWGQGTQVTLSS | high polyreactivity
2 | QDQLVESGGGLVQAGGSLRLTCAASGSTFGVYTMGWYRQAPGKERELVAAITKSGGSTYYADSVKGRFTISRDNAKNTVYLQMNSLKPEETAVYYCATDADRPPRTPDISYVSNFDYWGQGTQVTVSS | low polyreactivity
3 | QDQLVESGGGLVQAGGSLSLSCAASGSTFPYYAMGWSRPAPGKERELVAAISGSGGTTYYADSVKGRFTISRDNAKNTVYLQMNSLKPEDTAVYYCAVDIGVGYGYYYWGQGTQVTVSS | low polyreactivity
4 | QDQLVESGGGLVQAGGSLSLSCAASGSTFQPYTMGWYRQAPGKERELVAAITGRGGSTYYADSVKGRFTISRDNAKNTVYLQMNSLKPEDTAVYYCAAGAYRRNKSDYYYWGQGTQVTVSS | low polyreactivity
5 | QDQLVESGGGLVQAGGSLSLSCAAYGRIFSYNAMGWYRQAPGKERELVAAISYSGGRTYYADSVKGRFTISRDTAKNTVYLQMNSLKPEDTAVYYCAAEAHLAGYYRYYGGYGYDYWGQGTQVTVSS | high polyreactivity
6 | QDQLVESGGGLVQAGGSLSLSCADSGLTFGANTMGWYRQAPGKERELVATITQSVGRTYYADSVKGRFTISRDNAKNTVYLQMNSLKPEDTADYYCNAELYTVRVYTHPVYVRHDYWGQGTQVTVSS | high polyreactivity
7 | QDQLVESGGGLVQEGGSLRLSCAASVRIFGPYAMGWYRQAPGKERELLAAITRGGSTSYADSVKGRFTISRDNAKNTVYLQMNSLKPEDTAVYYCAADTLRWWDGFDYWGQGTQVTVST | low polyreactivity
8 | QDQLVESGGVLVQAGGSLRLSCAASGNIFAVYAMGWYRQAPGKERELVAAITTGTNTYADSVKGRFTISRDNAKNTVYLQMNSLKTEDTAVYYCAARSYRPLDYWGQGTQVTVSS | low polyreactivity
9 | QDQLVESRGGLVQAGCSLRLSCAASGFIFLHYTMGSYRQAPRKERELVAGITYGHGSTSYADSVKGRFTISRDNAKNTVYLQMNRLKPEDTAVYYCATRYWYRTSYQLYDYWGQGTQVTVSS | low polyreactivity
10 | QDQLVESRGGLVQAGGSLRLSCAASGRTFISNAMGWYRQAPGKERELVAADISWSGGSTYYADSVKGRFTISRDNAKNTVYLQMNIMKPEDTAVYYCNTVIRPYLAYTWSEIFDYWGQGTQVNVSS | low polyreactivity
11 | QDQLVESRGVLVQAGGSLRLTCAASGRTFYLNAMGWNRQATGKEREFVAAITWSSGSTYYADSVKGRFTISRDNAMNTVYLQMNSLKPEDTAVYYCAAAGRWSAYMYSWGQGTQVTVSS | high polyreactivity
12 | QDQLVESVGGLDQAGGSLPLSCDASGSIFPDYAMGWYRPAPGKERELVAAITSSGSTNNADSVKGLFTISRDNAKNTVYLQMNSLNPEDTAVYYCNAVVVQEESGYTRYDYWGQGTQVTVSS | low polyreactivity
13 | QDQLVESVGGLVQAGGSLRLSCAASGRTIDPNAMGWYRQAPGKERELVAAITRTGVRTYYADSVKGRFTISRDNAKNTVYLQMNSLKPEDTAVYYCAASYSGRQDRYPHYDYWGQGTQVTVSS | low polyreactivity
14 | QDQLVESVGGLVQAGGSLRLSCAASGSIFDQNAMGCSRHAPGKESELVAAITRGGSTKYADSVKGRFTISRDNAKNTVYLQMNSLKPEDTAVYYCARTDRRRYQPYEYWGPGTQVTVSS | low polyreactivity
15 | QDQLVESVGGLVQAGVSLRLSSASSGRTFWAYAMGWYRQAHGKERELVAAISRNGGSTYYADSVKGRFTISRDHAKNTVYLQMNSLKPEDTAVYYCAAESRYYYELGYWGQGTQVTVSS | high polyreactivity
16 | QDQLVETGGGLVQAGCSLRLSCAASGSIFTGYTMGWYRQAPGNEREFVAAIRATGGSTYYADSVKGRFTISRDNAKNTVYLQMNSLKPEDTAVFYCAVRSGGGSVRKRYGYWGQGTQVTVSS | high polyreactivity
17 | QDQLVETGGGLVQAGGCLRLSCAASGRNFFGYAMGWYRQAPGTERELLAAITQSGGRTYYADSVKGRFTISRDNAKNTVYLLMNSQKPEDTAVYYCAATWLGTRNLVHITLYYWGQGTQVTVSS | low polyreactivity
18 | QDQLVETGGGLVQAGGSLRISCADSGFTFGVNAMGWYREAPGKERELVAVITSGGNTYYADSVKGRFTISRDNAKNTDYCQMNSLKPEDTAVYYCAAYGRDSWDRDYWGQGTQVTVSS | low polyreactivity
19 | QDQLVETGGGLVQAGGSLRLSCAASGIIFYPNAMGWYRQAPGKERELVAAISWRSGSTYYADSVKGRFTISRDNAKNTVYLQMNSLKPEDTAVYYCAADRRRSYIWRYDYWGQGTQVTVSS | low polyreactivity
20 | QDQLVETGGGLVQARGSLRLSCAASGITFDKYAMGWYRQAPGKERELVAAISGSDGSTYYADSVKGRFTISRDNAKNTVYLQMNSLKQEDTSVYYCAAESEYAGTFEYDYWGQGTQVSVSS | low polyreactivity
21 | QDQLVETVGVLDKAGGSLRLSCAASGRTFAIYAMAWYRQAPGKEREFVAASSWSGGDSYYADSVKGRFTISRDNAKNSVYLQMNSLKPEHTAVYYCAARDNDYEGRYLQYDLDYWGQGTQVTVST | low polyreactivity
22 | QDQLVKSGGGLVQAGGSLLLSCAASGHTFSGYVMGWYRPAHGKERELVAAIRSGGSTYYADSVKGRFTISRDNAKKTVYLQMNSLKPEDTAVYYCAKSVTRYRTSAYGYWGQGTQVTVSS | high polyreactivity

Row | Sequence | polyreactivity (PSR sort gate)
23 | QDQLVQSRGGLVQAGGSLRISSAASGGTYFGYAMGWKRQAPGKERELVAAIRWSDGRTYYADSVKGRFTISRDNAKYTVYLQMNSLNPEDTAVYYCNADDARLFDYWGQGTQVTVSS | low polyreactivity
24 | QDQLVVSGGGLVQAGGSLRLSCAAYGFIVRSYDMGWYIQAPGKEREMVAAITSDVNSYYADSVKGRFTISRDNAKNTVYLQMNSLKPEDTAVYYFNADAVVYRDYQDYDYWGQGTQVTVSS | low polyreactivity
25 | QDQLVYSGGGLVQAGGSLSISCASSVSTFGGYAMGWYRQAPGKERELVSAITWSAGSTYADSVKGRFTISRDNAKNTVYLQMTSLKPEDTAVYYCAAYPYVGYVSLSAYDYWGQGTQVTVSS | low polyreactivity
26 | QDQPVESGGGLVQAGGRLRLSCAASGIICSGYAMGWYRQAAGKERELVAAISNDGTRTYYADSVKGRFTISRDNAKNTVYLQMNSLKPEDTAVYYCAAYSRLNVLGYDYWGQGTQVTVSS | high polyreactivity
27 | QEQLHESGGGQVQAGGSLLLSCAASGNIIRYYYIGCYRQAPGKEPELVAAITYGTSTNYADSVKGRFTISRDNAKNTVYLQMNSLKPEDTAVYYCAVDVNYGDPLDNWGQGTQVTVSS | high polyreactivity
28 | QEQLQESGGCLVQAGCSLRLSCAPSGTISDSGLMGWYRQPQGKERELVAGISSGGITNYADSVKGRLTISRDNAKNTVYLQMNSLKPEDTAVYYCAADSPVSVTADDGYWGQGTQVTVSS | low polyreactivity
29 | QEQLQESGGGLVQAGGSLRLSCAASGSIFHLHIMCRYRQAPGKERESVAAISYGTSTYYADSVKGRFTICRDNAKNTVYLQMNSPKPDDTAVYYCAALFLVSKHHHYWGEGTQVTVSS | low polyreactivity
30 | QEQLQESGGGQVQAGGSLLLSCAASGNIIRYYYMGWYRQAPGKERELVAAITYGTSTNYADSVKGRFTISRDNAKNTVYLQMNSLKPEDTAVYYFAVDVNYGDPLDNWGQGTQVTVSC | high polyreactivity
31 | QEQLVDSGGGLVQAGGSLRLSCAASVRIFGRYVMGWYRQAPGKERELVAAITSRDDSTYYADSVKGRFTISRDNAKNTVYLQMNSLKPEDTAVYYCAATWGRGYDYCGQGTQVTVSS | high polyreactivity
32 | QEQLVESGGGLDQAGGSLRLSCAASGSTFYAYAMGWSRQATGKETELVAAISSDGTNYADSVKGRFTISRDNAKNTVYLQMNCLKPEDTAVYYCAADLLLTSSQDNDYWGQGTQVTVSS | low polyreactivity
33 | QEQLVESGGGLVQAGGSLRISCAASGFIFGFYAMGWYRQAPGKERELVAAISWSAGSTYFADSVMGRFTISRDNAKNTVYLQMYSLKPEDTAVYYCAAYFDFRDDAVTYDYWGQGTQVTVSS | low polyreactivity
34 | QEQLVESGGGLVQAGGSLRLSCAASGRIFPYYAMGWYRPAPGKERELVASITARGGSTYYADSVKGRFTISRDNAKNTVYLQMNSLKPEDTAVYYCATRGYAWSSDKFGYWGQGTQVTVSS | high polyreactivity
35 | QEQLVESGGGLVQAGGSLRLSCAASGSIFATYAMGWNRQAPVKERELVAAITSSDGSTNYADSVKGRFTISRDNAKNTVYLLMNSLKPEDTAVYYCAADGTVRSLGRYYHWGQGTQVTVSS | low polyreactivity
36 | QEQLVESGGGLVQAGGSLRLSCAAYGSTYNSYVMGWNRQAPVKERELVAAISTSGGRTYYADSVKGRFTISRDNAKNTVYLKMISLKPEDTAVYYCNRVFLKYYESTHWRDYWGQGTKVTVSS | high polyreactivity
37 | QEQLVESGGGLVQAGGSLRLSGAASGGIFGRYAMGGYRQAPGKEMELVAAISKRGGSTYYADSVKGRFTISRDNAKNTVYLQMNSLKPEETAFYYCNAAQSVELGYDYWGQGTQVTVSS | high polyreactivity
38 | QEQMQEGGGGLVQAGGSLRLICASSGYNFNGDWMGWNRQAPGKERELVATINYGATTNYADSVKGRFTISRDNAKNTVYLQMNSLKPEDTAVYYCAVGGHGAQLYVYWGQGTQVTVSN | high polyreactivity
39 | QFHLVESGGGLVQAGGSLRLSCAAAGYTYGYYTMGWYRQAPGKERELVAAIDSGGRTNYADSVKGRFTISRDNAKNTVYLQMNSRKPEDTAVYYCAAESPLYWVDDFESGWRYYYWGQGTQVTVSS | low polyreactivity
40 | QFHLVETGGGLVQAGGSLRLSCAASGSTFSDYAMGSYRQAPGKERELVAGITETGTTTYYADSVNGRFTISRDNAKNTDYLQINSLKPEDTAVYYCAAFLVTYYYGTGYYSYDYWGQGTQVTVSS | low polyreactivity
41 | QFKLVESGGGLVQAGGSLRLSCAASGFTFRLVKAMRWYRQAPGKERELVAGINSGDITYYADSVKGRFTISRDNAKNTVYLQMNSLKPEDTAVYYCAARVVYGYGHYDYWGQGTQVTVSS | low polyreactivity
42 | QFQIEESGGGLVQAGGSLRLSCAASGNTFYWNAMGWYRQAPGKDRELVAAISTTGVSTYYADSVKGRFTISRDNAKITVYLQMNSLKPEDTAVYYCAAEIIGYHTIYDYWGQGTQVTVSS | low polyreactivity
43 | QFQLGESGGGLVQAGGSLRLSCAASGSTFSGYTKGWYRQARGKEREFVAAISSRGGSTYYADSVKGRFTISRDNAKNTVYLQMYRLNPEDTAVYYCAAKVCARVDGRQFRMEYWGQGTQVTVSS | high polyreactivity
